Source: PMC5158082 (PLoS Pathogens, 2016)

Columns and labels:
[1] = molecular target: T1, SpaR^STREP (Salmonella enterica serovar Typhimurium, UniProt P40701 1-263); assay: native MS; details: both partners purified
T1 construct: also called SpaR^STREP of the SpaPR^STREP complex
T1 sequence: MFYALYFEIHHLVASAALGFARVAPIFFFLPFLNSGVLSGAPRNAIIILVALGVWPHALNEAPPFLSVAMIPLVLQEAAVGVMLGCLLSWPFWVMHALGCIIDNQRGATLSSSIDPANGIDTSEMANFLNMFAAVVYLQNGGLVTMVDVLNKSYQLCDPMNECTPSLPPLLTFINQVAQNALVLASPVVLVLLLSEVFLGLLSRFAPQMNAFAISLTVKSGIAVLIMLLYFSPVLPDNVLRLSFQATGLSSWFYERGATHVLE

[2] = molecular target: the molecule itself; assay: native MS

B1: SpaP (untagged, co-expressed in E. coli) (natural protein)
chain: MGNDISLIALLAFSTLLPFIIASGTCFVKFSIVFVMVRNALGLQQIPSNMTLNGVALLLSMFVMWPIMHDAYVYFEDEDVTFNDISSLSKHVDEGLDGYRDYLIKYSDRELVQFFENAQLKRQYGEETETVKRDKDEIEKPSIFALLPAYALSEIKSAFKIGFYLYLPFVVVDLVVSSVLLALGMMMMSPVTISTPIKLVLFVALDGWTLLSKGLILQYMDIAT
notes: also called SpaP of the SpaPR complex; SpaP5R1
stoichiometry N [1]: 5 SpaP per SpaR^STREP | stoichiometry N [2]: 5
